Source: the supplement of paper PMC10567573

B1: RHOBTB3 (parent)
chain: QLQSMPSRELASMNLDIVDLLKKA
B2: KLHL14 (parent)
chain: CAVLDDSIYLVGGYSWSMGAYKSS

Variants of: B1
Test: protein stability index of a GFP-peptide fusion (GPS, HEK-293T) (PSI 1-6); higher = more stable
Details: c terminus: a fixed tail appended
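Also: lentivirally expressed fusions sorted by FACS into six bins by GFP to DsRed ratio, PSI derived from sequencing read proportions per bin multiplied by bin number.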

Variant | protein stability index
QLQKMPSRELASMNLDIVDLLKKA | 3.08
QLQCMPSRELASMNLDIVDLLKKA | 3.54
QLQSMPERELASMNLDIVDLLKKA | 3.48
QLQSMPTRELASMNLDIVDLLKKA | 4.35
QLQSMPLRELASMNLDIVDLLKKA | 2.56
QLQSMPSRELASMNLTIVDLLKKA | 3.05
QLQSMPSRELASMNLYIVDLLKKA | 2.62
QLQSMPSRELASMNLIIVDLLKKA | 2.67
QLQSMPSRELASMNLSIVDLLKKA | 3.23
QLQSMPSRELASMNLEIVDLLKKA | 3.63
QLQSMPSRELASMNLRIVDLLKKA | 2.5
QLQSMPSRILASMNLDIVDLLKKA | 2.44
QLQSMPSRYLASMNLDIVDLLKKA | 3.14
QLQSMPSRKLASMNLDIVDLLKKA | 2.27
QLQSMPSRSLASMNLDIVDLLKKA | 3.6
QLQSMPSRLLASMNLDIVDLLKKA | 2.7
QLQSMPSGELASMNLDIVDLLKKA | 3.71
QLQSMPSSELASMNLDIVDLLKKA | 3.99
QLQSMPSWELASMNLDIVDLLKKA | 2.58
QLQSMPSPELASMNLDIVDLLKKA | 3.22
QLQSMPSHELASMNLDIVDLLKKA | 3.94
QLQSMPSQELASMNLDIVDLLKKA | 3.85

Variants of: B2
Test: as above
Details: c terminus: a fixed tail appended

Variant | protein stability index
IAVLDDSIYLVGGYSWSMGAYKSS | 2.83
SAVLDDSIYLVGGYSWSMGAYKSS | 1.7
CAVWDDSIYLVGGYSWSMGAYKSS | 1.6
CAVNDDSIYLVGGYSWSMGAYKSS | 3.26
CAVLGDSIYLVGGYSWSMGAYKSS | 1.41
CAVLIDSIYLVGGYSWSMGAYKSS | 2.19
CAVLADSIYLVGGYSWSMGAYKSS | 2.24
CAVLLDSIYLVGGYSWSMGAYKSS | 3.33
CIVLDDSIYLVGGYSWSMGAYKSS | 2.13
CMVLDDSIYLVGGYSWSMGAYKSS | 3.27
CRVLDDSIYLVGGYSWSMGAYKSS | 1.3
CQVLDDSIYLVGGYSWSMGAYKSS | 1.93
CSVLDDSIYLVGGYSWSMGAYKSS | 1.59
CAVLDDSIYIVGGYSWSMGAYKSS | 1.68
CAVLDDSIYLVPGYSWSMGAYKSS | 2.79
CAVLDDSIYLVEGYSWSMGAYKSS | 3.21
CAVLDDSIYLVSGYSWSMGAYKSS | 1.46
CAVLDDSIYLVIGYSWSMGAYKSS | 2.47
CAVLDDSIYLVGHYSWSMGAYKSS | 3.56
CAVLDDSIYLVGTYSWSMGAYKSS | 3.26
CAVLDDSIYLVGFYSWSMGAYKSS | 2.97
CAVLDDSIYLVGNYSWSMGAYKSS | 2.32
CAVLDDSIYLVGGYDWSMGAYKSS | 2.34
CAVLDDSIYLVGGYKWSMGAYKSS | 2.83

Variant | protein stability index
CAVLDDSIYLVGGYYWSMGAYKSS | 1.87
CAVLDDSIYLVGGYSWSMRAYKSS | 2.98
CAVLDDSIYLVGGYSWSMIAYKSS | 2.9
CAVLDDSNYLVGGYSWSMGAYKSS | 1.65
CAVLDDSHYLVGGYSWSMGAYKSS | 1.93
CAVLDDSGYLVGGYSWSMGAYKSS | 1.22
CAVLDDSKYLVGGYSWSMGAYKSS | 1.77
CAVLDDSCYLVGGYSWSMGAYKSS | 3.23
CAVLDDSIYLVGGYSWSIGAYKSS | 3.21
CAVLDDSIYLVGGYSWSKGAYKSS | 1.91
CAVLDDSIYLVGGYSWSSGAYKSS | 1.73
CAVLDDSIYLVGGYSWSPGAYKSS | 1.62
CAVLDDSIYLVGGYSWSWGAYKSS | 3.11
CAVLDDSIYLVGGYSWKMGAYKSS | 2.48
CAVLDDSIYLVGGYSWPMGAYKSS | 1.54
CAVLDDSIYLVGGYSWLMGAYKSS | 3.11
CAVLDDSIYLVGGYSWAMGAYKSS | 3.94
CAVLDDSIYLVGGYSWTMGAYKSS | 2.27
CAVLDSSIYLVGGYSWSMGAYKSS | 2.61
CAMLDDSIYLVGGYSWSMGAYKSS | 2.9
CALLDDSIYLVGGYSWSMGAYKSS | 2.21
CATLDDSIYLVGGYSWSMGAYKSS | 2.94
CAVLDDSIYLVGGYSWSMGAYKSG | 1.65
CAVLDDSIYLVGGYSWSMGAYKSK | 2.36

Variant | protein stability index
CAVLDDSIYLIGGYSWSMGAYKSS | 3.25
CAVLDDSIYLVGGYSGSMGAYKSS | 1.95
CAVLDDSIYLVGGYSESMGAYKSS | 2.53
CAVLDDSIYLVGGYSISMGAYKSS | 2.35
CAVLDDSIYLVGGYSVSMGAYKSS | 1.03
CAVLDDSIYLVGGYSMSMGAYKSS | 3.09
CAVLDDSICLVGGYSWSMGAYKSS | 3.86
CAVLDDSIYLVGGYSWSMGVYKSS | 2.02
CAVLDDSIYLVGGYSWSMGRYKSS | 1.74
CAVLDDSIYLVGGYSWSMGHYKSS | 2.31
CAVLDDSIYLVGGYSWSMGNYKSS | 3.33
CAVLDDSIYLVGGESWSMGAYKSS | 1.69
CAVLDDSIYLVGGSSWSMGAYKSS | 1.83
CAVLDDSIYLVGGASWSMGAYKSS | 1.55
CAVLDDSIYLVGGTSWSMGAYKSS | 1.44
CAVLDDSIYLVGGVSWSMGAYKSS | 2.19
CAVLDDSIYLVGGYSWSMGAVKSS | 2.6
CAVLDDSIYLVGGYSWSMGATKSS | 1.24
CAVLDDSIYLVGGYSWSMGAYHSS | 3.04
CAVLDDSIYLVGGYSWSMGAYPSS | 1.79
CAVLDDLIYLVGGYSWSMGAYKSS | 3.32
CAVLDDMIYLVGGYSWSMGAYKSS | 2.99
CAVLDDSIYLVGGYSWSMGAYKYS | 1.98
CAVLDDSIYLVGGYSWSMGAYKIS | 2.8
